Laboratory results taken from paper PMC6746865, “Identification of telomerase RNAs in species of the Yarrowia clade provides insights into the co-evolution of telomerase, telomeric repeats and telomere-binding proteins”.

Molecular target: T1, Tay1p (YlTay1p) (Yarrowia lipolytica, UniProt Q6C9I6 1-406)
T1 sequence: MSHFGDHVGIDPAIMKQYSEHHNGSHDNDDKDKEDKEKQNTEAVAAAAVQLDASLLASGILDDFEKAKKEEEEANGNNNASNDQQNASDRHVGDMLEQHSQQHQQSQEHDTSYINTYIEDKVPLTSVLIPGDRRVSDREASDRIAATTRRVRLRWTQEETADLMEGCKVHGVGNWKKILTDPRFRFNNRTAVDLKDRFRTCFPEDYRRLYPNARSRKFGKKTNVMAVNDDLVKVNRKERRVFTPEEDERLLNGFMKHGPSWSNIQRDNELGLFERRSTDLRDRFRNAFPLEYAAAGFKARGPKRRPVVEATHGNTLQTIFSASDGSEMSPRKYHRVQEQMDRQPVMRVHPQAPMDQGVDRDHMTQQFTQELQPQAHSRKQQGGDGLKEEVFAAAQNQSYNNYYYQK
Experiment: EMSA; 20 mM HEPES-NaOH pH 7.3, 100 mM NaCl, 16 nM dsDNA probe (3-fold molar excess of unlabelled C strand used in annealing), 10 min at room temperature; 6% PAGE in cold 0.5x TBE
Settings: protein: recombinant; label: 5'-32P on G strand; blunt

B1: Y. lipolytica telomeric probe YlipTEL (2 repeats) (dsDNA)
DNA 1: TTAGTCAGGGTTAGTCAGGG
DNA 2: CCCTGACTAACCCTGACTAA
  binding result: binds
